From PMC10786891, “Massively parallel profiling of RNA-targeting CRISPR-Cas13d”
Positions count from the first letter of the chain named. Names and notes keep the numbering of the source.

T1: EsCas13d, nuclease-dead (Eubacterium siraeum, UniProt B0MS50, R295A;H300A;R849A;H854A)
T1 sequence: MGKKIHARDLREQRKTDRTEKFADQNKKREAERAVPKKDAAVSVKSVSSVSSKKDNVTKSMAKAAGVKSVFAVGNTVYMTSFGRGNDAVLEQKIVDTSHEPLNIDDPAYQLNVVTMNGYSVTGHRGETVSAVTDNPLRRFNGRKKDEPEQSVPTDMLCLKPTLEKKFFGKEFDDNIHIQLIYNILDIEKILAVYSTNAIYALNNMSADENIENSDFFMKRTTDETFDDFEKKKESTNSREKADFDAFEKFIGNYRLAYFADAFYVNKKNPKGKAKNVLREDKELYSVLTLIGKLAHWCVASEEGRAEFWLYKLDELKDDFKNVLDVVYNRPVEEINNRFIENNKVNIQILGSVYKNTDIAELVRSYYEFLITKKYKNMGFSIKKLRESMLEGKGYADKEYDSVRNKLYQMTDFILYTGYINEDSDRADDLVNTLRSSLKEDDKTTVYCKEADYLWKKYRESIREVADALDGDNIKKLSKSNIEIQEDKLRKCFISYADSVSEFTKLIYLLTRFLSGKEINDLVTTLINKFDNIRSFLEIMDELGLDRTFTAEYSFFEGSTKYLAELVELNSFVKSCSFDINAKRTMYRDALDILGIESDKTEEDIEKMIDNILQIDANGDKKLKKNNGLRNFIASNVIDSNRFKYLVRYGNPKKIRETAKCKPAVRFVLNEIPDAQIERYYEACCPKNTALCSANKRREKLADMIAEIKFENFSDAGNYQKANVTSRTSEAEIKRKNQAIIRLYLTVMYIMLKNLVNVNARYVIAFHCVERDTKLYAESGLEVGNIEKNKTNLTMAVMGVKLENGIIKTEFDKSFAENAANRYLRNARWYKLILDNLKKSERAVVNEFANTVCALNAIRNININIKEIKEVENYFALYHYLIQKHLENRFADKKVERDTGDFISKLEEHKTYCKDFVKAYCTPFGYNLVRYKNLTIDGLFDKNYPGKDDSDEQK

B1: target 1 MT 5'PFS GUU 3'PFS UCA (mixed)
RNA 1: CACCCGUGCAAAAAUGCAGGGGUCUAAAACUGAGCGGAUAACCUCUCUAUGG
RNA 2: GGGAAUGGAUCCACAUCUACGAAUUCGUUCCAUAGAGAGGUUAUCCGCUCAUCAAGAUCGGAAGAGCACACGU
B2: target 1 U8C,U11G (mixed)
RNA 1: B1 RNA 1
RNA 2: B1 RNA 2 with U29A, U41G, U44C, U52C, A54G
B3: target 1 MT 5'PFS CUG 3'PFS UCU (mixed)
RNA 1: B1 RNA 1
RNA 2: B1 RNA 2 with G27C, U29G, A54U
B4: target 1 MT 5'PFS GAA 3'PFS UAC (mixed)
RNA 1: B1 RNA 1
RNA 2: B1 RNA 2 with U28A, U29A, C53A, A54C
B5: target 1 MT 5'PFS UAG 3'PFS CAG (mixed)
RNA 1: B1 RNA 1
RNA 2: B1 RNA 2 with G27U, U28A, U29G, U52C, C53A, A54G
B6: target 1 MT 5'PFS GCG 3'PFS UAC (mixed)
RNA 1: B1 RNA 1
RNA 2: B1 RNA 2 with U28C, U29G, C53A, A54C
B7: target 1 MT 5'PFS ACG 3'PFS UGU (mixed)
RNA 1: B1 RNA 1
RNA 2: B1 RNA 2 with G27A, U28C, U29G, C53G, A54U
B8: target 1 MT 5'PFS GCG 3'PFS UAU (mixed)
RNA 1: B1 RNA 1
RNA 2: B1 RNA 2 with U28C, U29G, C53A, A54U
B9: target 1 MT 5'PFS ACC 3'PFS CCG (mixed)
RNA 1: B1 RNA 1
RNA 2: B1 RNA 2 with G27A, U28C, U29C, U52C, A54G
B10: target 1 MT 5'PFS AAU 3'PFS ACG (mixed)
RNA 1: B1 RNA 1
RNA 2: B1 RNA 2 with G27A, U28A, U52A, A54G
B11: target 1 G5A,C6A (mixed)
RNA 1: B1 RNA 1
RNA 2: B1 RNA 2 with U29A, C46A, G47A, U52C, A54G
B12: target 1 MT 5'PFS GCG 3'PFS UAG (mixed)
RNA 1: B1 RNA 1
RNA 2: B1 RNA 2 with U28C, U29G, C53A, A54G
B13: target 1 MT 5'PFS ACG 3'PFS UGA (mixed)
RNA 1: B1 RNA 1
RNA 2: B1 RNA 2 with G27A, U28C, U29G, C53G
B14: target 1 MT 5'PFS AAU 3'PFS ACA (mixed)
RNA 1: B1 RNA 1
RNA 2: B1 RNA 2 with G27A, U28A, U52A
B15: target 1 insC 3' of 11,insA 3' of 5 (mixed)
RNA 1: B1 RNA 1
RNA 2: GGGAAUGGAUCCACAUCUACGAAUUCGUACCAUAGAGAGGUCUAUCCGACUCACCGAGAUCGGAAGAGCACACGU
B16: target 1 MT 5'PFS GUG 3'PFS GUG (mixed)
RNA 1: B1 RNA 1
RNA 2: B1 RNA 2 with U29G, U52G, C53U, A54G
B17: target 1 MT 5'PFS GUG 3'PFS GUC (mixed)
RNA 1: B1 RNA 1
RNA 2: B1 RNA 2 with U29G, U52G, C53U, A54C
B18: target 1 MT 5'PFS GUU 3'PFS AAG (mixed)
RNA 1: B1 RNA 1
RNA 2: B1 RNA 2 with U52A, C53A, A54G
B19: target 1 MT 5'PFS GAA 3'PFS AGG (mixed)
RNA 1: B1 RNA 1
RNA 2: B1 RNA 2 with U28A, U29A, U52A, C53G, A54G
B20: target 1 MT 5'PFS GUU 3'PFS AAA (mixed)
RNA 1: B1 RNA 1
RNA 2: B1 RNA 2 with U52A, C53A
B21: target 1 MT 5'PFS UAG 3'PFS CAC (mixed)
RNA 1: B1 RNA 1
RNA 2: B1 RNA 2 with G27U, U28A, U29G, U52C, C53A, A54C
B22: target 1 MT 5'PFS GCG 3'PFS UAA (mixed)
RNA 1: B1 RNA 1
RNA 2: B1 RNA 2 with U28C, U29G, C53A
B23: target 1 MT 5'PFS GUA 3'PFS CUU (mixed)
RNA 1: B1 RNA 1
RNA 2: B1 RNA 2 with U29A, U52C, C53U, A54U
B24: target 1 MT 5'PFS UAG 3'PFS CAU (mixed)
RNA 1: B1 RNA 1
RNA 2: B1 RNA 2 with G27U, U28A, U29G, U52C, C53A, A54U
B25: target 1 MT 5'PFS GGC 3'PFS CGU (mixed)
RNA 1: B1 RNA 1
RNA 2: B1 RNA 2 with U28G, U29C, U52C, C53G, A54U
B26: target 1 MT 5'PFS GAA 3'PFS UAA (mixed)
RNA 1: B1 RNA 1
RNA 2: B1 RNA 2 with U28A, U29A, C53A
B27: target 1 MT 5'PFS GAA 3'PFS AGA (mixed)
RNA 1: B1 RNA 1
RNA 2: B1 RNA 2 with U28A, U29A, U52A, C53G
B28: target 1 MT 5'PFS CUG 3'PFS UCC (mixed)
RNA 1: B1 RNA 1
RNA 2: B1 RNA 2 with G27C, U29G, A54C
B29: target 1 MT 5'PFS UAU 3'PFS UCU (mixed)
RNA 1: B1 RNA 1
RNA 2: B1 RNA 2 with G27U, U28A, A54U
B30: target 1 MT 5'PFS GUU 3'PFS UCU (mixed)
RNA 1: B1 RNA 1
RNA 2: B1 RNA 2 with A54U
B31: target 1 MT 5'PFS UAG 3'PFS CAA (mixed)
RNA 1: B1 RNA 1
RNA 2: B1 RNA 2 with G27U, U28A, U29G, U52C, C53A
B32: target 1 MT 5'PFS GAA 3'PFS UAU (mixed)
RNA 1: B1 RNA 1
RNA 2: B1 RNA 2 with U28A, U29A, C53A, A54U
B33: target 1 MT 5'PFS CCG 3'PFS AGA (mixed)
RNA 1: B1 RNA 1
RNA 2: B1 RNA 2 with G27C, U28C, U29G, U52A, C53G
B34: target 1 MT 5'PFS CCG 3'PFS AGU (mixed)
RNA 1: B1 RNA 1
RNA 2: B1 RNA 2 with G27C, U28C, U29G, U52A, C53G, A54U

Molecular target: T1, EsCas13d, nuclease-dead
Experiment: crRNA (strand 1, pre-loaded); Mg2+; 40 mM Tris-HCl pH 7.5, 150 mM NaCl, 6 mM MgCl2, 1 mM DTT, 0.1% Tween-20, 0.2 mg/ml BSA; 25 C; 10 min per concentration, then washed
Settings: tags: His6-TwinStrep-SUMO cleaved; N-terminal SNAP kept (SNAP-Surface 488); label: 3' end held by stalled T7 RNA polymerase

Row | Binder | Kd
1 | B1 | 15.6 ± 2.1 nM
2 | B2 | 27 ± 2.5 nM
3 | B3 | 3.55 ± 0.8 nM
4 | B4 | 40 ± 11 nM
5 | B5 | 42.5 ± 13 nM
6 | B6 | 13.2 ± 2.3 nM
7 | B7 | ~74.5 nM
8 | B8 | 12.2 ± 2.95 nM
9 | B9 | ~18.5 nM
10 | B10 | 47 ± 13 nM
11 | B11 | 5.75 ± 0.22 nM
12 | B12 | 17.5 ± 4 nM
13 | B13 | 20.5 ± 7.5 nM
14 | B14 | ~32 nM
15 | B15 | 7.9 ± 0.8 nM
16 | B16 | 8.9 ± 0.55 nM
17 | B17 | 17 ± 2.6 nM

Row | Binder | Kd
18 | B18 | 37.5 ± 8.5 nM
19 | B19 | 81 ± 34 nM
20 | B20 | 46.5 ± 13.5 nM
21 | B21 | ~43 nM
22 | B22 | 10.6 ± 1.6 nM
23 | B23 | 8.52 ± 0.595 nM
24 | B24 | 65 ± 21 nM
25 | B25 | 10.7 ± 1.75 nM
26 | B26 | 23 ± 7.5 nM
27 | B27 | 62 ± 21.5 nM
28 | B28 | 4.75 ± 1.1 nM
29 | B29 | 32 ± 6.5 nM
30 | B30 | 12.7 ± 1.4 nM
31 | B31 | 51 ± 11 nM
32 | B32 | 27.5 ± 6 nM
33 | B33 | 4.45 ± 1.5 nM
34 | B34 | 10 ± 4.5 nM
